# Molecular target: biotinylated recombinant SARS-CoV-2 RBD (SARS-CoV-2) (UniProt P0DTC2)
# Assay: BLI
substance,measurement,value
soluble N. vison ACE2 (domain or fragment),Kd,1500 nM

# From paper doi:10.1101/2025.02.12.637862
